Reference: PMC9810080

How the values were obtained:
[1] = target: CaM1 peptide, CNGB1 residues 565–589 (UniProt Q14028); assay: ITC
[2] = target: CaM2 peptide, CNGB1 residues 1120–1147 (UniProt Q14028); assay: ITC
Chain of CaM2 peptide, CNGB1 residues 1120–1147 (Q14028 1120-1147): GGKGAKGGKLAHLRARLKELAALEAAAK

Chain of CaM1 peptide, CNGB1 residues 565–589 (Q14028 565-589): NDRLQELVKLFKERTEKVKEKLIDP

Kd of the endothermic site (two-site fit) [1]: 240 µM | apparent Kd of the exothermic site (two-site fit) [1]: 1 µM | dH1 (site 1 of the two-site fit) [1]: -31.4 kJ/mol | stoichiometry N [1]: 2 CaM1 per CaM | dH [2]: 8.79 kJ/mol | dH1 (site 1 of the two-site fit) [2]: -18.8 kJ/mol | stoichiometry N [2]: 2 CaM2 per CaM
Substance: Calmodulin (CaM), full-length (from UniProt P0DP23 1-149) (natural protein)
